For one molecule, binding signal results are on record in PMC7132122.

The target of series [1] is DHX15ΔN;NKRF G-patch wt (Homo sapiens;Homo sapiens, UniProt O43143;O15226 113-795;541-603, |). The series can be described thus: fluorescence polarization.
Series [2] addresses DHX15ΔN;NKRF G-patch V582G (Homo sapiens;Homo sapiens, UniProt O43143;O15226 113-795;541-603, |V582G). The series can be described thus: fluorescence polarization. A general note: In fluorescence polarisation assays a small probe gives low polarisation when free and higher when bound to something large.

DHX15ΔN;NKRF G-patch wt, sequence (O43143 113-795, stated change not applied, chain 1 of 2): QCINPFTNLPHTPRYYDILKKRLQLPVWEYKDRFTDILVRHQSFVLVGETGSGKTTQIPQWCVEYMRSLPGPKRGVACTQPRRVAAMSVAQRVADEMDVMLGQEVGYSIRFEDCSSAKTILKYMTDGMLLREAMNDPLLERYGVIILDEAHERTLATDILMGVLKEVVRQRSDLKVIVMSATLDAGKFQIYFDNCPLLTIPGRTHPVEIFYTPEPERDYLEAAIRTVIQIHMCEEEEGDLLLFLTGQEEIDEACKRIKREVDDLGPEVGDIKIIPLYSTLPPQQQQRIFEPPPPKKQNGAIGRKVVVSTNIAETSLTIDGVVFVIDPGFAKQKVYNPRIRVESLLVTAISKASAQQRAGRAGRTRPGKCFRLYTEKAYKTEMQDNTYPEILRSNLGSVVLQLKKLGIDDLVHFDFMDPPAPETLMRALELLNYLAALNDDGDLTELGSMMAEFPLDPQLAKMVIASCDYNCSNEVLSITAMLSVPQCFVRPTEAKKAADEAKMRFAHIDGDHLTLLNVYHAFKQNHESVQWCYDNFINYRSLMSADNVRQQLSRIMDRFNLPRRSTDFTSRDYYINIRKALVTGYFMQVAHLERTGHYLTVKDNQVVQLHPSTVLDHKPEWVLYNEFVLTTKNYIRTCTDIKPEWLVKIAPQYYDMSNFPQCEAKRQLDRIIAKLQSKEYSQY
DHX15ΔN;NKRF G-patch wt, sequence (O15226 541-603, stated change not applied, chain 2 of 2): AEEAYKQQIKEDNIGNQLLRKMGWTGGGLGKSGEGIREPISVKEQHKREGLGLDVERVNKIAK
DHX15ΔN;NKRF G-patch V582G, sequence (O43143 113-795, chain 1 of 2): as the sequence (O43143 113-795, stated change not applied, chain 1 of 2) above
DHX15ΔN;NKRF G-patch V582G, sequence (O15226 541-603 V582G, chain 2 of 2): as the sequence (O15226 541-603, stated change not applied, chain 2 of 2) above, with V42G counted along it

In the case of UUUUUUUUUUUU (ssRNA) [FAM-U12 RNA], the binding signal is ~1 fold of Kd without nucleotide in series [1] and 1.2 fold increase of affinity in series [2].
